Usually Kd stands for the concentration at which binding is half-saturated.

The record followed here is patent US20260116951A1 (DUCENTIS BIOTHERAPEUTICS, published 2026).

B3: DS-192 (human CD200-Fc, K130Y, IgG4 Fc) (Fc fusion)
chain: QVQVVTQDEREQLYTPASLKCSLQNAQEALIVTWQKKKAVSPENMVTFSENHGVVIQPAYKDKINITQLGLQNSTITFWNITLEDEGCYMCLFNTFGFGYISGTACLTVYVQPIVSLHYKFSEDHLNITCSATARPAPMVFWKVPRSGIENSTVTLSHPNGTTSVTSILHIKDPKNQVGKEVICQVLHLGTVTDFKQTVNKGPPCPPCPAPEFLGGPSVFLFPPKPKDTLMISRTPEVTCVVVDVSQEDPEVQFNWYVDGVEVHNAKTKPREEQFNSTYRVVSVLTVLHQDWLNGKEYKCKVSNKGLPSSIEKTISKAKGQPREPQVYTLPPSQEEMTKNQVSLTCLVKGFYPSDIAVEWESNGQPENNYKTTPPVLDSDGSFFLYSRLTVDKSRWQEGNVFSCSVMHEALHNHYTQKSLSLSLGK
notes: also called 13 nM CD200-Fc; ha CD200-IgG4 Fc
B6: Recombinant Human CD200R, His-tagged (Creative Biomart CD200R1-320H) (receptor, UniProt Q8TD46 27-266, looked up)
chain: AAQPNNSLMLQTSKENHALASSSLCMDEKQITQNYSKVLAEVNTSWPVKMATNAVLCCPPIALRNLIIITWEIILRGQPSCTKAYKKETNETKETNCTDERITWVSRPDQNSDLQIRTVAITHDGYYRCIMVTPDGNFHRGYHLQVLVTPEVTLFQNRNRTAVCKAVAGKPAAHISWIPEGDCATKQEYWSNGTVTVKSTCHWEVHNVSTVTCHVSHLTGNKSLYIELLPVPGAKKSAKL
notes: Bought; also called human CD200 receptor; not shown: His tag

Assay [1] deals with T1, muCD200R-Fc (Creative Biomart CD200R1-458M) (mouse, UniProt Q9ES57 26-238).
T1 construct: Captured on anti-human IgG Fc for the mouse CD200 measurements; also called Murine CD200R1; immobilized CD200R (muCD200); not shown: Fc of the bought fusion, not described (captured on anti-human IgG Fc)
T1 sequence (looked up): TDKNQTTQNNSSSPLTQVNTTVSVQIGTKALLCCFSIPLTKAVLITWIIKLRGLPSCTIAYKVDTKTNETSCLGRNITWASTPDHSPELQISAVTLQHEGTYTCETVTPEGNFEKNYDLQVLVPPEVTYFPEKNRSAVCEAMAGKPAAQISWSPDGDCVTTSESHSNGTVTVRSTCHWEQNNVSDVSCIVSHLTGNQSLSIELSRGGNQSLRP
The assay can be described thus: SPR, his-tag mouse CD200 monomer flowed over muCD200R-Fc captured on anti-human Fc, 25 C, 1:1 fit, mean of 2 experiments with standard deviation. As for the experimental part: (§1) For mouse CD200 constructs, muCD200R-Fc (Creative Biomart CD200R1-458M) diluted to 1 μg/mL in running buffer was flowed over the immobilized Anti-Human IgG Fc, with CD200 monomers serially diluted and flowed over captured CD200R. Other details were as above. Data analysis: experimental sensorgrams were analyzed in BIAevaluation software (GE Healthcare). The curves obtained were fitted to 1:1 Langmuir binding model by setting Rmax and RI as local parameters. Rate equations using standard parameters (e.g. ligand concentration, time) were used for iterative curve fitting. Closeness of fit was determined by algorithms provided by the manufacturer in the BIAevaluation software, and data accepted if the Chi² value was less than 10% of Rₘₐₓ, and the U value was less than or equal to 15.
(§2) Curves obtained were fitted to 1:1 Langmuir binding model by setting Rmax and RI as local parameters. Rate equations using standard parameters (e.g. ligand concentration, time) were used for iterative curve fitting. […] Means of 2 experiments carried out on the same day are shown with standard deviation. Residue numbering for CD200 proteins refers to the pre-protein, containing a signal peptide which is cleaved during insertion into the endoplasmic reticulum.
In general terms: In SPR one partner is held on a chip, and binding of the other changes the refractive index at the surface.

For assay [2], the target named is T1, muCD200R-Fc (Creative Biomart …). Put plainly: SPR, his-tag mouse CD200 monomer flowed over muCD200R-Fc captured on anti-human Fc, 25 C, 1:1 fit. The protocol: as §1, §2
Assay [3] shares this target. The assay can be described thus: SPR, monomeric binding. The protocol: as §1, §2
The target of assay [4] is B6. The assay can be described thus: SPR, CD200R flowed over immobilized CD200-Fc, 25 C, 1:1 fit. As for the experimental part: (§3) For human CD200 constructs: anti-human Fc (GE Healthcare) was covalently immobilized on a BIAcore CM5 sensor chip (Cytiva, BR100530) by amine coupling using a Cytiva kit (BR100839) following the manufacturer's instructions, targeting immobilization of 8,000-11,000 RU. CD200-Fc proteins were diluted to 0.5 μg/mL to 4 μg/mL in running Buffer (1×HBS-EP+pH7.4 (Cytiva BR100669), HEPES Buffered Saline pH 7.4 containing 3 mM EDTA and 0.05% v/v Surfactant P20) and flowed for 25 to 100 seconds at 10 μL/min over the immobilized Anti-Human IgG Fc, with a stabilization time of 60 seconds. Between 35 and 250 RUs of CD200-Fc were captured, with higher RUs used for cynomolgus CD200R binding experiments. […] Analysis temperature was 25° C. This was followed by regeneration of the surface with 30-90 second pulse of 3M MgCl₂ flowed at […] flow rate followed by stabilization of the surface with 60 second flow of running buffer.
as §2

For assay [5], the target named is T2, Recombinant Cyno CD200R, His-tagged (Creative Biomart CD200R1-3483C) (cynomolgus monkey).
T2 construct: Bought; also called cynomolgus CD200R1; cynomolgus CD200R
Put plainly: SPR, cyno CD200R1 flowed over immobilized CD200-Fc, 25 C, 1:1 fit. As for the experimental part:
as §3, §2

Assay [6] deals with T2, Recombinant Cyno CD200R, His-tagged …. The assay can be described thus: SPR, cyno CD200R1 flowed over immobilized CD200-Fc, 25 C, 1:1 fit, mean of 2 experiments with standard deviation. As for the experimental part: as §3, §2
For assay [7], the target named is B3. The assay can be described thus: SPR (BIAcore).
In assay [8] the target is B3. The assay can be described thus: SPR, CD200R flowed over immobilized CD200-Fc, 25 C, 1:1 fit, mean of 2 experiments with standard deviation. As for the experimental part:
as §3, §2

B1: Murine wild-type CD200 monomer, his-tag (DS-131), printed in Table 7 as DS-198 (ligand, mouse, UniProt O54901 31-232, looked up)
chain: QVEVVTQDERKALHTTASLRCSLKTSQEPLIVTWQKKKAVSPENMVTYSKTHGVVIQPAYKDRINVTELGLWNSSITFWNTTLEDEGCYMCLFNTFGSQKVSGTACLTLYVQPIVHLHYNYFEDHLNITCSATARPAPAISWKGTGTGIENSTESHFHSNGTTSVTSILRVKDPKTQVGKEVICQVLYLGNVIDYKQSLDKG
notes: extracellular domain; the match of DS-131 to DS-198 follows the order of the sentence; also called wild type muCD200-Fc (the corresponding IgG2a Fc fusion); not shown: his tag
Consider B1, for which binding in assay [1] was put at a Kd of 584 nM. Further, the T1/2 in assay [2] was found to be 0.288 min.

B2: Murine CD200 H82Y, T125I monomer, his-tag (DS-169), printed in Table 7 as DS-227 (ligand, mouse, UniProt O54901 31-232, looked up)
chain: QVEVVTQDERKALHTTASLRCSLKTSQEPLIVTWQKKKAVSPENMVTYSKTYGVVIQPAYKDRINVTELGLWNSSITFWNTTLEDEGCYMCLFNIFGSQKVSGTACLTLYVQPIVHLHYNYFEDHLNITCSATARPAPAISWKGTGTGIENSTESHFHSNGTTSVTSILRVKDPKTQVGKEVICQVLYLGNVIDYKQSLDKG
notes: extracellular domain; See the note of m9; not shown: his tag
Take B2: in assay [1], the dissociation constant (Kd) was 43.3 nM. Moreover, the T1/2 in assay [2] amounted to 1.96 min. For the same molecule, in assay [3], the “fold higher affinity than wild type” value is roughly 14 fold.

As to B3, the T1/2 in assay [4] was found to be 3.1 min; in assay [5], 0.32 min. The equilibrium dissociation constant (Kd) in assay [6] came to 459 nM.

B4: Human CD200R1L (receptor, UniProt Q6Q8B3 24-239, looked up)
chain: GKQMTQNYSTIFAEGNISQPVLMDINAVLCCPPIALRNLIIITWEIILRGQPSCTKAYKKETNETKETNCTVERITWVSRPDQNSDLQIRPVDTTHDGYYRGIVVTPDGNFHRGYHLQVLVTPEVNLFQSRNITAVCKAVTGKPAAQISWIPEGSILATKQEYWGNGTVTVKSTCPWEGHKSTVTCHVSHLTGNKSLSVKLNSGLRTSGSPALSLL
notes: nothing is said of the reagent
Turning to B4, in assay [7], the binding result is listed as “no binding”.

B5: Mouse CD200R protein (Creative Biomart CD200R1-3280M) (receptor, UniProt Q9ES57 26-238, looked up)
chain: TDKNQTTQNNSSSPLTQVNTTVSVQIGTKALLCCFSIPLTKAVLITWIIKLRGLPSCTIAYKVDTKTNETSCLGRNITWASTPDHSPELQISAVTLQHEGTYTCETVTPEGNFEKNYDLQVLVPPEVTYFPEKNRSAVCEAMAGKPAAQISWSPDGDCVTTSESHSNGTVTVRSTCHWEQNNVSDVSCIVSHLTGNQSLSIELSRGGNQSLRP
notes: also called Murine CD200R1; murine CD200R
Regarding B5, the binding result in assay [7] is “no binding”.

In the case of B6, in assay [8], the Kd was determined as 12.5 nM.
